Experimental findings from the supplement of paper PMC9170038 are described below.

Series [1] concerns MS2 coat protein. As to the kind of experiment: apparent KD of MS2 coat protein, switch ON state; designed switch direction (-1 OFF switch, 1 ON switch): -1; higher = weaker reporter binding. Particulars: FMN input: 0 or 200 uM; Eterna round: R93 (includes R88 designs). The method, boiled down:
(§1)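 Designed RNA switches were transcribed on-chip from Illumina sequencing clusters and titrated with SNAP-549-labelled MS2 coat protein in twofold steps from 0.7 or 1.5 nM up to 3 µM. Each step lasted 0.8–1.5 h at first and 10–20 min by the end, in 100 mM Tris-HCl pH 7.5, 80 mM KCl and 4 mM MgCl2, without or with constant ligand. Apparent KD is the median, for each design, of fits to normalised cluster binding curves.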

For series [2], the system named is MS2 coat protein. In words: apparent KD of MS2 coat protein, switch OFF state (with FMN for OFF switches, without FMN for ON switches); designed switch direction (-1 OFF switch, 1 ON switch): -1; higher = weaker reporter binding. Particulars: FMN input: 0 or 200 uM; Eterna round: R93 (includes R88 designs). An outline of the steps:
as §1

With “AGAAAGGCAGGAUAUACAUGAGGAUCACCCAUGUUAAGAAAGACGGAAACGUCAAGAAGUAGAAGGGCCAAGAA [Shaken, but not stirred]”, the entries for the “apparent KD of MS2 coat protein” value in the series on MS2 coat protein [1] and in the series on MS2 coat protein [2] were 21.9 nM and 19.7 nM, respectively.
On the same counts, the results for “AGAAAGGUAGGAUAUACGAAAAAAAAGGGUAGAAAAAAAACACAUGAGGAUCACCCAUGUAGAAGGACCAAAGA [Mat - Exclusion 2 - Tesla mod - D31]” are 35.2 nM and 47.5 nM.
On the same counts, the results for “AGAAAGUCAGGAUAUACGAAAGUGCGAAAGCACAAAAGGGAACAUGAGGAUCACCCAUGUAGAAGGGACAAGAA [Diamond 77]” are 91.4 nM and 170 nM.
On the same counts, the results for “AGAAAGUCAGGAUAUCAGAAUAAGUCGAAAACGACUAGUAAUGAGAAGGGACAUGAGGAUCACCCAUGUAAGAA [Ex4 sub 3]” are 49 nM and 37.1 nM.
In the case of “AGAAAGUCAGGAUAUGUACAAAAUAAAAUAAAAAUAAAAGUACAGAAGGGACAUGAGGAUCACCCAUGUAAAGA [Mat - Exclusion 4 - Mayanna - D121]”, the “apparent KD of MS2 coat protein” value was found to be 50.2 nM in the series on MS2 coat protein [1] and 52.4 nM with MS2 coat protein [2].
As to “AGAAAGUCAGGAUAUGUGGAAAAAAUAAAAAAAAUAAAAACACAGAAGGGACAUGAGGAUCACCCAUGUUAAGA [Mat - Exclusion 4 - Mayanna - D139]”, the figures for the “apparent KD of MS2 coat protein” value in the series on MS2 coat protein [1] and in the series on MS2 coat protein [2] were 53.4 nM and 30.3 nM, respectively.
The like results for “AGAAUACAUGAGGAUCACCCAUGUGAGGAUAUAUGAAGAAAAAGAAAAGAAAAGAAACAUAGAAGGCACAAAAG [EX 1 May 16]” were, in that order, 16.1 nM and 86.7 nM.
On the same counts, the results for “AGAAUACAUGAGGAUCACCCAUGUGAGGAUAUGUGAAGAAAAAGAAAAGAAAAGAAACACAGAAGGCACAAAAG [EX 1 May 17]” are 29.7 nM and 69.3 nM.
On the same counts, the results for “AGCAAGUCAGGAUAUACGAACAAGACAAAAGACGAGAAGGGACAUGAGGAUCACCCAUGUAGAAGGGACAAGCA [74%, Web mod - With 5 less U's]” are 61.9 nM and 60.8 nM.
For the sequence “AGCAAGUGAGGAUAUGCGAAGUCAGGACAAACACUGACGAAGCAGAAGGCACAUGAGGAUCACCCAUGUAAGCA [Mat - Exaclusion 4 - Eli mod - D60]”, the “apparent KD of MS2 coat protein” value in the series on MS2 coat protein [1] was determined as 28.8 nM; in the series on MS2 coat protein [2], 29.8 nM.
As for “AGCACGUCAGGAUAUACGAAAAAAAAGGGUAAAAAAAACACACAUGAGGAUCACCCAUGUAGAAGGGACAAGCA [Diamond 94]”, the entries for the “apparent KD of MS2 coat protein” value in the series on MS2 coat protein [1] and in the series with MS2 coat protein [2] were 66.8 nM and 86.8 nM, respectively.
As to “AGCUAGAGAGGAUAUACAUGGAAAAAAAAAGUCUGAUCCCUACAUGAGGAUCACCCAUGUAGAAGGCUCUGGCA [Ex2 Design 158: Sub-opt 22]”, the “apparent KD of MS2 coat protein” value worked out at 23.5 nM in the series with MS2 coat protein [1] and 13 nM with MS2 coat protein [2].
On the same counts, the results for “AGCUAGCGAGGAUAUACGAACAUGUCAAAAGACGUGAAGGGACAUGAGGAUCACCCAUGUAGAAGGCGCUAGCA [JL 74% mod 5]” are 41.1 nM and 144 nM.
The like results for “AGCUAGUCAGGAUAUACAAACAUGUCAAAAGACGUGAAGGGACAUGAGGAUCACCCAUGUAGAAGGGACUAGCA [Web Mod 74% 2]” were, in that order, 52.2 nM and 217 nM.
In the case of “AGCUAGUCAGGAUAUACGCAAACGAACGAAGCUGAGAAGGGACAUGAGGAUCACCCAUGUAGAAGGGACUAGCA [Diamond 32]”, the figures for the “apparent KD of MS2 coat protein” value in the series with MS2 coat protein [1] and in the series on MS2 coat protein [2] were 25.3 nM and 55.6 nM, respectively.
On the same counts, the results for “AGCUAGUGAGGAUAUACGAACAUGUCAAAAGACGUGAAGGAACAUGAGGAUCACCCAUGUAGAAGGCACUAGCA [Mat - Exclusion 2 - JL-Eli mod - D54]” are 17.2 nM and 14.6 nM.
On the same counts, the results for “AGGAAACAUGAGGAUCACCCAUGUGAGGAUAUUUGAAAGAAAAGAAAAGAAAGAAGAAGAAGAAGGCACAAGAA [Merneith]” are 17.6 nM and 20.5 nM.
On the same counts, the results for “AGGGAACAUGAGGAUCACCCAUGUGAGGAUAUGCUAUGGAAAUAAAAAAUAAAACAUAGCAGAAGGCAUAAAAA [Mat - Exclusion 1 - Eli mod - D39]” are 47.6 nM and 46.1 nM.
For “AGUAUCACAGGAUAUACAUAGGUGAAAAAAGUAAAUCCACUACAUGAGGAUCACCCAUGUAGAAGGGUGAUACA [Ex2 Design 177: Random 4B]”, the “apparent KD of MS2 coat protein” value with MS2 coat protein [1] came out at 69.9 nM; in the series with MS2 coat protein [2] it was 62.2 nM.
Regarding “AGUCCAGAAGGAUAUACAUAGGUGAAAAAAAAAAAAAAACUACAUGAGGAUCACCCAUGUAGAAGGUCUGGACA [Mod of Brourd]”, the results for the “apparent KD of MS2 coat protein” value in the series with MS2 coat protein [1] and in the series on MS2 coat protein [2] were 58.6 nM and 25.5 nM, respectively.
